Reference: paper PMC10267580 (2023)
Where a chain is given by its changes, count along the chain named. Numbers in names are those of the source. Each block holds one binder with its values, some of them ahead of it.

Experiments:
[1] = biological target: Rab6B^Q72L, GTPase domain (residues 8-176), constitutively active mutant (mouse, UniProt P61294 8-176, Q72L); test: ITC
[2] = biological target: Rab6B^Q72L L11E, GTPase domain (mouse, UniProt P61294 8-176, Q72L | L11E); test: ITC
Sequence of Rab6B^Q72L L11E, GTPase domain (P61294 8-176 L11E/Q72L): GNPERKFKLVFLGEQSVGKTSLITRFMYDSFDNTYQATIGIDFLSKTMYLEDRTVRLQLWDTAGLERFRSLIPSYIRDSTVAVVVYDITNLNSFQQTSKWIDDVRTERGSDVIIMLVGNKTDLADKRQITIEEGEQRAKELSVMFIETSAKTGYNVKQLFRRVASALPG

Sequence of Rab6B^Q72L, GTPase domain (residues 8-176), constitutively active mutant (P61294 8-176 Q72L): as the sequence (P61294 8-176 L11E/Q72L) above, with E4L counted along it

Kd [1]: 26 µM
B1: ELKS1_RBD S868A (domain or fragment)
chain: RKHLEEVLEMKQEALLAAIAEKDANIALLELSSSKKKTQEEVAALKREKDRLVQQLKQQTQNRMKLMADNYEDD

Kd [2]: > 50 µM
B2: ELKS1_RBD, Rab-binding domain of ELKS1 (residues 849-922) (domain or fragment)
chain: B1 chain with A20S
